In the supplement of paper PMC10567573:

B1: BTBD10 (parent)
chain: DRKLHSRPRKLYKHSSTSSRIAKG

Variants of: B1
Assay: protein stability index of a GFP-peptide fusion (GPS, HEK-293T) (PSI 1-6); higher = more stable
Details: c terminus: a fixed tail appended
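Further: lentivirally expressed fusions sorted by FACS into six bins by GFP to DsRed ratio, PSI derived from sequencing read proportions per bin multiplied by bin number.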

Protein stability index of substitutions, site by site:
I21: G 4.71; K 4.28; L 3.96; D 4.6; N 4.03; H 4.04; T 4.18; P 4.16; R 3.95; E 4.33; S 4.59
R9: D 4.01; F 3.27; T 3.84; P 3.69; Q 4.11; M 3.74; I 3.02; S 4.47; V 3.82; K 4.17; A 4.1; G 4.3; Y 3.64; E 4.19
K10: P 3.25; I 2.62; L 3.77; T 3.58; V 3.72; A 3.67; W 3.33; Q 4.08; N 4.07
L4: M 4.23; R 3.9; W 3.5; D 4.49; V 3.71; Y 3.8; T 4.3; C 3.9; G 3.72; K 4.28; S 4.71; A 4.42; P 4.11; Q 4.08
S16: G 3.52; F 2.17; N 4.28; A 4.32; Y 3.45; I 3.65; R 3.78; V 4.03; M 4; T 4.35
L11: W 3.67; F 4.91; I 3.61; P 3.79; S 4.57; R 4.42; H 3.93; Q 4.13; D 3.71; A 4.08; T 4.82
T17: A 3.7; H 3.63; Y 3.08; V 3.81; D 4.54; K 4.33; P 3.88; E 4.41; W 2.2; Q 3.98; R 4.45; F 3.24
D1: S 3.89; G 3.47; Y 3.03; P 3.42; N 4; L 3.2; W 2.8; T 3.16; Q 3.81; H 3.42; M 3.8; F 2.9; R 3.05
K13: W 3.55; L 2.84; P 3.86; T 4; Y 3.6; D 4.23; S 3.52; E 4.47; G 4.42; N 3.61; F 2.77
S6: V 3.91; N 4.04; C 3.43; A 3.67; R 3.39; M 3.46; W 2.92; H 3.68; K 3.55; T 3.76; D 4.69; F 3.18
R2: T 4.09; I 2.66; K 3.83; P 4.02; H 4.46; F 2.65; L 2.7; C 3.62; M 3.89; Q 4.19; G 3.95
K23: R 3.27; M 2.89; C 3.17; F 3.56; W 3.04; T 3.58; P 3.44; N 4.61; V 3.31; L 3; A 3.72; H 3.41; D 3.78; Q 4.1
A22: Y 3.7; G 3.91; D 4.01; S 4.15; T 3.55; W 3.47; Q 4.15; K 3.68; N 3.34; P 3.99; C 3.11; V 3.71; L 3.03; H 3.58; R 4.5; E 3.67; I 3.58
Y12: E 4.28; V 4.08; C 3.84; F 4.01; I 3.3; R 4.21; W 4.1; Q 4.01; L 3.88
R7: D 4.54; I 3.31; K 3.33; Q 4.4; A 3.98; W 2.97; G 4.33; M 3.84; V 3.28; N 4.1; S 4.21; L 2.84; C 3.76; H 3.79; F 2.59; E 4.41
P8: Q 4.24; V 3.05; A 4.2; K 3.67; C 4.03; W 3.95; F 2.21; I 3.65; M 3.02; R 3.18; N 3.81; G 3.68
H5: W 3.16; R 3.9; E 4.09; F 4.43; I 3.74; M 3.43; Y 3.02; G 2.82; K 4.09; L 3.72; S 4.34; D 3.99
S18: G 3.99; A 4.42; N 4.36; Y 2.88; R 3.63; T 3.65; W 2.71; D 4.13; H 3.6
S19: V 3.65; K 4.18; W 3.22; T 4.4; A 3.55; Y 2.62; L 3.45; R 4.53; P 4.34; F 3.23; M 3.07; Q 3.63; E 4.42
K3: C 3.95; D 4.42; M 3.56; H 4.41; V 3.92; P 3.92; Y 3.37; A 4.52; S 3.57; N 3.55; E 4.03; I 3.47
H14: A 4.27; Y 2.79; M 3.67; L 3.4; W 3.61; E 4.13; C 4.41
G24: N 4.3; Q 3.92; E 4.5; Y 3.33; T 4; I 3.21; K 4.14; M 3.38; W 2.65; V 3.74; R 4; C 3.3
R20: H 4.24; W 2.97; E 4.04; M 4.06; D 4.28; C 3.39; G 3.62; F 3.6; L 3.94; A 3.9; Y 3.94; K 3.92
S15: R 4.12; L 3.71; V 3.88; E 4.06; P 4.05; A 4.23; K 3.59; N 3.66; H 3.25
